Measurements: patent publication US20200292536A1

Tests used:
[1] = biological target: BCL2 peptide Ac-…-amide (amino acids 41-54 of human BCL2 with linkers) (human); assay: imaging mass cytometry; peptide 2.50E-07 M in core (second core); Ab 10 ug/ml
[2] = biological target: BCL2 peptide Ac-…-amide (amino acids 41-54 of human BCL2 with linkers) (human); assay: imaging mass cytometry; peptide 2.50E-04 M in core; Ab 1 ug/ml
[3] = biological target: Bovine serum albumin (BSA; Ultra Pure) (bovine) (UniProt P02769); assay: imaging mass cytometry; no peptide (background cores)
[4] = biological target: BCL2 peptide Ac-…-amide (amino acids 41-54 of human BCL2 with linkers) (human); assay: imaging mass cytometry; peptide 2.50E-08 M in core; Ab 10 ug/ml
[5] = biological target: BCL2 peptide Ac-…-amide (amino acids 41-54 of human BCL2 with linkers) (human); assay: imaging mass cytometry; peptide 2.50E-06 M in core
[6] = biological target: BCL2 peptide Ac-…-amide (amino acids 41-54 of human BCL2 with linkers) (human); assay: imaging mass cytometry; peptide 2.50E-04 M in core (second core); Ab 1 ug/ml
[7] = biological target: BCL2 peptide Ac-…-amide (amino acids 41-54 of human BCL2 with linkers) (human); assay: imaging mass cytometry; peptide 2.50E-06 M in core; Ab 1 ug/ml
[8] = biological target: Bovine serum albumin (BSA; Ultra Pure) (bovine) (UniProt P02769); assay: imaging mass cytometry; no peptide (background core); Ab 1 ug/ml
[9] = biological target: BCL2 peptide Ac-…-amide (amino acids 41-54 of human BCL2 with linkers) (human); assay: imaging mass cytometry; peptide 2.50E-08 M in core; Ab 1 ug/ml
[10] = biological target: BCL2 peptide Ac-…-amide (amino acids 41-54 of human BCL2 with linkers) (human); assay: imaging mass cytometry; peptide 2.50E-05 M in core; Ab 1 ug/ml
[11] = biological target: BCL2 peptide Ac-…-amide (amino acids 41-54 of human BCL2 with linkers) (human); assay: imaging mass cytometry; peptide 2.50E-07 M in core; Ab 5 ug/ml
[12] = biological target: Bovine serum albumin (BSA; Ultra Pure) (bovine) (UniProt P02769); assay: imaging mass cytometry; no peptide (background core); Ab 10 ug/ml
[13] = biological target: Bovine serum albumin (BSA; Ultra Pure) (bovine) (UniProt P02769); assay: imaging mass cytometry; no peptide (second background core); Ab 1 ug/ml
[14] = biological target: BCL2 peptide Ac-…-amide (amino acids 41-54 of human BCL2 with linkers) (human); assay: imaging mass cytometry; peptide 2.50E-08 M in core (second core); Ab 1 ug/ml
[15] = biological target: BCL2 peptide Ac-…-amide (amino acids 41-54 of human BCL2 with linkers) (human); assay: imaging mass cytometry; peptide 2.50E-05 M in core (second core); Ab 10 ug/ml
[16] = biological target: BCL2 peptide Ac-…-amide (amino acids 41-54 of human BCL2 with linkers) (human); assay: imaging mass cytometry; peptide 2.50E-08 M in core
[17] = biological target: BCL2 peptide Ac-…-amide (amino acids 41-54 of human BCL2 with linkers) (human); assay: imaging mass cytometry; peptide 2.50E-07 M in core (second core); Ab 1 ug/ml
[18] = biological target: BCL2 peptide Ac-…-amide (amino acids 41-54 of human BCL2 with linkers) (human); assay: imaging mass cytometry; peptide 2.50E-06 M in core; Ab 10 ug/ml
[19] = biological target: BCL2 peptide Ac-…-amide (amino acids 41-54 of human BCL2 with linkers) (human); assay: imaging mass cytometry; peptide 2.50E-04 M in core (second core); Ab 5 ug/ml
[20] = biological target: BCL2 peptide Ac-…-amide (amino acids 41-54 of human BCL2 with linkers) (human); assay: imaging mass cytometry; peptide 2.50E-06 M in core (second core); Ab 5 ug/ml
[21] = biological target: BCL2 peptide Ac-…-amide (amino acids 41-54 of human BCL2 with linkers) (human); assay: imaging mass cytometry; peptide 2.50E-08 M in core (second core); Ab 5 ug/ml
[22] = biological target: Bovine serum albumin (BSA; Ultra Pure) (bovine) (UniProt P02769); assay: imaging mass cytometry; no peptide (background core); Ab 5 ug/ml
[23] = biological target: BCL2 peptide Ac-…-amide (amino acids 41-54 of human BCL2 with linkers) (human); assay: imaging mass cytometry; peptide 2.50E-06 M in core; Ab 5 ug/ml
[24] = biological target: BCL2 peptide Ac-…-amide (amino acids 41-54 of human BCL2 with linkers) (human); assay: imaging mass cytometry; peptide 2.50E-07 M in core
[25] = biological target: BCL2 peptide Ac-…-amide (amino acids 41-54 of human BCL2 with linkers) (human); assay: imaging mass cytometry; peptide 2.50E-08 M in core; Ab 5 ug/ml
[26] = biological target: BCL2 peptide Ac-…-amide (amino acids 41-54 of human BCL2 with linkers) (human); assay: imaging mass cytometry; peptide 2.50E-06 M in core (second core); Ab 1 ug/ml
[27] = biological target: BCL2 peptide Ac-…-amide (amino acids 41-54 of human BCL2 with linkers) (human); assay: imaging mass cytometry; peptide 2.50E-05 M in core; Ab 10 ug/ml
[28] = biological target: BCL2 peptide Ac-…-amide (amino acids 41-54 of human BCL2 with linkers) (human); assay: imaging mass cytometry; peptide 2.50E-04 M in core; Ab 10 ug/ml
[29] = biological target: BCL2 peptide Ac-…-amide (amino acids 41-54 of human BCL2 with linkers) (human); assay: imaging mass cytometry; peptide 2.50E-04 M in core (second core); Ab 10 ug/ml
[30] = biological target: BCL2 peptide Ac-…-amide (amino acids 41-54 of human BCL2 with linkers) (human); assay: imaging mass cytometry; peptide 2.50E-07 M in core; Ab 1 ug/ml
[31] = biological target: BCL2 peptide Ac-…-amide (amino acids 41-54 of human BCL2 with linkers) (human); assay: imaging mass cytometry; peptide 2.50E-05 M in core; Ab 5 ug/ml

Chain of BCL2 peptide Ac-…-amide (amino acids 41-54 of human BCL2 with linkers) (human) (peptide, as listed by the source): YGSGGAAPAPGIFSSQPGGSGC
Chain of UniProt P02769 (P02769 25-607 limits assumed): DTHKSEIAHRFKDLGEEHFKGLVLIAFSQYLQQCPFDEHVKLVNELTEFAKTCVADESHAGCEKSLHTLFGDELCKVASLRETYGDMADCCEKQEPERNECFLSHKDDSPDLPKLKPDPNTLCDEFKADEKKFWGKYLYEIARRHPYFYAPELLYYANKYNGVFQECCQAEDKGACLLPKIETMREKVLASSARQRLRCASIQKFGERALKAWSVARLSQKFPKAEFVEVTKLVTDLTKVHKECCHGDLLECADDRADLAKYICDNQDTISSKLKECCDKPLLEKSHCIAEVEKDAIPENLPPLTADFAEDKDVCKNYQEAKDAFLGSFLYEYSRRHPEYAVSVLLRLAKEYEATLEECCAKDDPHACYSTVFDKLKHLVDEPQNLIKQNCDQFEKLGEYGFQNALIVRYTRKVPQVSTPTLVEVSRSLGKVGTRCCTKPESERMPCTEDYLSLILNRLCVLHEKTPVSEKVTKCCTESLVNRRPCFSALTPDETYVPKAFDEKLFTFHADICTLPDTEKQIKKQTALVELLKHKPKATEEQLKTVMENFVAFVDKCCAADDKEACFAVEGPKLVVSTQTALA

- Integrated Ion counts (per 150 micron square ROI) [1]: 1760 ion counts
- Integrated Ion counts (per 150 micron square ROI) [2]: 59300 ion counts
- Average Ion count [3]: 1280 ion counts
- Integrated Ion counts (per 150 micron square ROI) [4]: 1230 ion counts
- Average Ion count [5]: 6400 ion counts
- Ion count above background [5]: 522 ion counts
- Moles ^146Nd Ab detected per ROI [5]: 2.93e-18 mol
- ^146Nd Ab/peptide [5]: 1.3%
- Integrated Ion counts (per 150 micron square ROI) [6]: 42200 ion counts
- Integrated Ion counts (per 150 micron square ROI) [7]: 7750 ion counts
- Integrated Ion counts (per 150 micron square ROI) [8]: 1350 ion counts
- Integrated Ion counts (per 150 micron square ROI) [9]: 1450 ion counts
- Integrated Ion counts (per 150 micron square ROI) [10]: 32400 ion counts
- Integrated Ion counts (per 150 micron square ROI) [11]: 1370 ion counts
- Integrated Ion counts (per 150 micron square ROI) [12]: 979 ion counts
- Integrated Ion counts (per 150 micron square ROI) [13]: 1310 ion counts
- Integrated Ion counts (per 150 micron square ROI) [14]: 1410 ion counts
- Integrated Ion counts (per 150 micron square ROI) [15]: 48700 ion counts
- Average Ion count [16]: 1310 ion counts
- Ion count above background [16]: 134 ion counts
- Moles ^146Nd Ab detected per ROI [16]: 7.5e-20 mol
- ^146Nd Ab/peptide [16]: 3.33%
- Integrated Ion counts (per 150 micron square ROI) [17]: 2380 ion counts
- Integrated Ion counts (per 150 micron square ROI) [18]: 789000 ion counts
- Integrated Ion counts (per 150 micron square ROI) [19]: 37400 ion counts
- Integrated Ion counts (per 150 micron square ROI) [20]: 3900 ion counts
- Integrated Ion counts (per 150 micron square ROI) [21]: 2070 ion counts
- Integrated Ion counts (per 150 micron square ROI) [22]: 1080 ion counts
- Integrated Ion counts (per 150 micron square ROI) [23]: 4290 ion counts
- Average Ion count [24]: 1740 ion counts
- Ion count above background [24]: 562 ion counts
- Moles ^146Nd Ab detected per ROI [24]: 3.15e-19 mol
- ^146Nd Ab/peptide [24]: 1.4%
- Integrated Ion counts (per 150 micron square ROI) [25]: 976 ion counts
- Integrated Ion counts (per 150 micron square ROI) [26]: 7700 ion counts
- Integrated Ion counts (per 150 micron square ROI) [27]: 39300 ion counts
- Integrated Ion counts (per 150 micron square ROI) [28]: 87400 ion counts
- Integrated Ion counts (per 150 micron square ROI) [29]: 880000 ion counts
- Integrated Ion counts (per 150 micron square ROI) [30]: 1580 ion counts
- Integrated Ion counts (per 150 micron square ROI) [31]: 16600 ion counts
Substance: Fluidigm EPR17509-^146Nd antibody
